T1: human TIGIT on the surface of Jurkat-hTIGIT cells (human, UniProt Q495A1 22-244)
T1 construct: whole, on cells; also called human TIGIT on the surface of Jurkat cells
T1 sequence (looked up): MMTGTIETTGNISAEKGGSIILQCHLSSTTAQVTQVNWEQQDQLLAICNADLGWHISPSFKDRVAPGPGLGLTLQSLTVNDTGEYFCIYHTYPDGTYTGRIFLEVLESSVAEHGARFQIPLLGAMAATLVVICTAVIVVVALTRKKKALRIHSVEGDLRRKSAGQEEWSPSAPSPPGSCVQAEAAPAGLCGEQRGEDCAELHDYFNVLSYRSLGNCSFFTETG

T2: recombinant human TIGIT (His Tag) (human, UniProt Q495A1 22-141)
T2 construct: Coated antigen of the ELISA; not shown: His tag
T2 sequence (looked up): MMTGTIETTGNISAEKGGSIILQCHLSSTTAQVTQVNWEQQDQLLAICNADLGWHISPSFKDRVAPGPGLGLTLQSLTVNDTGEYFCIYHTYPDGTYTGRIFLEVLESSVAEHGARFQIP

T3: human CD112R-mFc protein (human, UniProt Q6DKI7 41-171, limits assumed)
T3 construct: also called human CD112R protein; not shown: mouse Fc (mFc)
T3 sequence (looked up): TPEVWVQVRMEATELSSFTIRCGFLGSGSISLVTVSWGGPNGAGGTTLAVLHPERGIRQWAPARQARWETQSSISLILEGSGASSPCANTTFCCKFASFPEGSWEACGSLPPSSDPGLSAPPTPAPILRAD

T4: recombinant human HX1 hCD112R Fc (human, UniProt Q6DKI7 41-171, limits assumed)
T4 construct: Coated antigen of the ELISA (Suzhou Junmeng); also called human CD112R; not shown: Fc part
T4 sequence (looked up): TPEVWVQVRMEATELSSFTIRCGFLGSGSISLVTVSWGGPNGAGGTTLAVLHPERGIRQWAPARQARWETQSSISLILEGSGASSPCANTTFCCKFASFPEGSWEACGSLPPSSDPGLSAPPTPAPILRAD


How the values were obtained:
[1] = target: T1, human TIGIT on the surface of …; test: flow cytometry, blocking of 1 ug/mL PVR-mFc binding to Jurkat-hTIGIT cells
Method: Jurkat-hTIGIT cells (human T lymphocytes, human TIGIT positive) were incubated with different concentrations of the bispecific antibodies JS-1, JS-3, JS-5 and JS-9 and 1 μg/mL human PVR-mFc protein at 4° C. for 30 min, then washed and incubated with a fluorescence-labeled anti-mouse IgG secondary antibody (1:200) in a dark place at 4° C. for 30 min. Finally, the cells were collected using a flow cytometer (BD Canto II), and the fluorescent antibodies bound to the cell surface were detected. Raw data were analyzed using FlowJo to obtain MFI values, antibody dose-dependent binding curves (FIG. 4) were fitted using GraphPad, and IC50 was calculated. The positive controls were hu20 (a recombinant humanized anti-TIGIT monoclonal antibody) and JS-Ref (Hengrui) (an anti-TIGIT/CD112R bispecific antibody of Hengrui, expressed and purified according to the sequence of the patent WO2021180205), and the negative control was an anti-KLH-hIgG4 antibody.

[2] = target: T2, recombinant human TIGIT (His Tag); test: ELISA, plate coated with recombinant human TIGIT (His Tag), detection with HRP anti-human IgG4 Fc; unit taken from the concentration axis [2a]
Method: (§1) 2. Procedures [0241] a. A 96-well plate was coated with 1.5 μg/mL recombinant human TIGIT (His Tag) (Suzhou Junmeng) as the antigen at 100 μL/well and incubated at 37° C. for 1.5 h. [0242] b. The plate was washed 4 times with 300 μL/well 1×PBST, and 2% BSA was added at 200 μL/well. The plate was blocked at 37° C. for 1.5 h. [0243] c. The plate was washed 4 times with 300 μL/well 1×PBST, and serial dilutions of the bispecific antibodies JS-1,3,5,9 and a negative control: antibody (anti-KLH hIgG4) (initial concentration 1.0 μg/mL, 3-fold serially diluted to 12 concentration points, 100 μL/well) were added. The plate was incubated at 37° C. for 1 h. [0244] d. The plate was washed 4 times with 300 μL/well 1×PBST. [0245] e. 5000-fold diluted horseradish peroxidase (HRP)-conjugated mouse anti-human IgG4 Fc antibody (Southern Biotech, 9200-05) was added at 100 μL/well, and the plate was incubated at 37° C. for 1 h. […] The plate was washed 4 times with 300 μL/well 1×PBST. [0247] g. 0.1 mg/mL TMB was added at 100 μL/well, and after the plate was incubated at 37° C. for 15 min, a 2 M solution of hydrochloric acid was added at 100 μL/well to stop the reactions. [0248] h. The absorbance was measured at 450 nm/620 nm on a microplate reader, and data were analyzed using Graphpad Prism7.

[3] = target: T2, recombinant human TIGIT (His Tag); test: ELISA, plate coated with recombinant human TIGIT (His Tag), detection with HRP anti-human IgG4 Fc; unit taken from the concentration axis [2b]
Method: as §1

human CD112R-mFc protein = target: T3, human CD112R-mFc protein; test: flow cytometry, blocking of 1 ug/mL CD112R-mFc binding to CHO hCD112 cells
Method: CHO hCD112 cells (Chinese hamster ovary cells, human CD112 positive) were incubated with different concentrations of the bispecific antibodies JS-1, JS-3, JS-5 and JS-9 and 1 μg/mL human CD112R-mFc protein at 4° C. for 30 min, then washed twice and incubated with a fluorescence-labeled anti-mouse IgG secondary antibody (1:200) in a dark place at 4° C. for 30 min. Finally, the cells were collected using a flow cytometer (BD Canto II), and the fluorescent antibodies bound to the cell surface were detected. Raw data were analyzed using FlowJo to obtain MFI values, antibody dose-dependent binding curves (FIG. 4) were fitted using GraphPad, and IC50 was calculated. The positive controls were hu52 (a recombinant humanized anti-CD112R monoclonal antibody) and JS-Ref (Hengrui) (an anti-TIGIT/CD112R bispecific antibody of Hengrui, expressed and purified according to the sequence of the patent WO2021180205), and the negative control was an anti-KLH-hIgG1 antibody.

[4] = target: T4, recombinant human HX1 hCD112R Fc; test: ELISA, plate coated with recombinant human HX1 hCD112R Fc, detection with HRP anti-human IgG4 Fc; unit taken from the concentration axis [3a]
Method: (§2) 2. Procedures [0255] a. A 96-well plate was coated with 1.0 μg/mL recombinant human HX1 hCD112R Fc (Suzhou Junmeng) as the antigen at 100 μL/well and incubated at 37° C. for 1.5 h. [0256] b. The plate was washed 4 times with 300 μL/well 1×PBST, and 2% BSA was added at 200 μL/well. The plate was blocked at 37° C. for 1.5 h. [0257] c. The plate was washed 4 times with 300 μL/well 1×PBST, and serial dilutions of the bispecific antibodies JS-1,3,5,9 and a negative control: antibody (anti-KLH hIgG4) (initial concentration 3.0 μg/mL, 3-fold serially diluted to 12 concentration points, 100 μL/well) were added. The plate was incubated at 37° C. for 1 h. [0258] d. The plate was washed 4 times with 300 μL/well 1×PBST. [0259] e. 5000-fold diluted horseradish peroxidase (HRP)-conjugated mouse anti-human IgG4 Fc antibody (Southern Biotech, 9200-05) was added at 100 μL/well, and the plate was incubated at 37° C. for 1 h. [0260] f. The plate was washed 4 times with 300 μL/well 1×PBST. [0261] g. 0.1 mg/mL TMB was added at 100 μL/well, and after the plate was incubated at 37° C. for 15 min, a 2 M solution of hydrochloric acid was added at 100 μL/well to stop the reactions. […] The absorbance was measured at 450 nm/620 nm on a microplate reader, and data were analyzed using Graphpad Prism7.

[5] = target: T4, recombinant human HX1 hCD112R Fc; test: ELISA, plate coated with recombinant human HX1 hCD112R Fc, detection with HRP anti-human IgG4 Fc; unit taken from the concentration axis [3b]
Method: as §2

IC50 [1] | EC50 [2] | EC50 [3] | IC50 (human CD112R-mFc protein) | EC50 [4] | EC50 [5] | Binder
1.98 nM | 20.9 ng/mL | 6.63 ng/mL | – | – | – | hu20 (a recombinant humanized anti-TIGIT monoclonal antibody) (antibody, V domains shown, vector hu20-2O18HC-3; also called hu20 mAb; anti-TIGIT antibody; not shown: heavy chain constant region) VH: QVQLVQSGAEVKKPGASVKVSCKTSGYAFTEYTMHWVRQAPGKGLEWMGGINPNTGGTTYNQKFQGRVTLTVDKSSSTAYMELSSLRSEDTVVYYCAKLLRLMYYFDYWGQGTLVTVSS VL: DIQMTQSPSSLSASVGDRVTITCQASQDVRTAVAWYQQKPGKAPKLLIYSASYRYTGVPSRFSGSGSGTDFTFTISSLQPEDIATYYCHQHYITPWTFGGGTKVEIKR
– | – | – | 0.601 nM | 2.46 ng/mL | 2.62 ng/mL | hu52 (a recombinant humanized anti-CD112R monoclonal antibody) (antibody, human IgG4 S228P, kappa, V domains shown, also called hu52 mAb; anti-CD112R antibody) VH: EVQLVESGGGLVKPGGSLRLSCAASGFTFSSYHMSWVRQAPGKGLELVSAINSNGINTYYLDTVKGRFTISRDNAKNSLYLQMNSLRAEDTAVYYCARHEDYYGFAMDYWGQGTLVTVSS VL: DIVMTQSPDSLAVSLGERATINCKASQSVSNDVAWYQQKPGQPPKLLIYYVSHRFTGVPDRFSGSGSGTDFTLTISSLQAEDVAVYFCHQAYRSPWTFGQGTKLEIKR

Source: US20240117043A1 (SHANGHAI JUNSHI BIOSCIENCES, published 2024)
